Data: US11400156B2, “Methods of preventing secondary infections” (Yeda Research and Development Co. Ltd., priority 2015, dated 2022)
Where two headings read alike, the source gives them in different places.

Columns and labels:
[1] = test system: influenza A/Puerto Rico/8/34 (A/PR/8/34, H1N1); format: in vivo, C57BL/6J mice
[2] = test system: influenza A/Puerto Rico/8/34 (A/PR/8/34, H1N1); format: in vivo, C57BL/6J mice; remark: listed apart in the source
[3] = test system: PR8 influenza virus followed by S. pneumoniae; format: in vivo, C57BL/6J mice
S. pneumoniae = format: in vivo, C57BL/6J mice
[4] = test system: collagenolytic activity in lung section; design: species or system C57BL/6J mice; conditions: mouse, in vivo
[5] = test system: influenza A/Puerto Rico/8/34 (A/PR/8/34, H1N1); format: in vivo, C57BL/6J mice; remark: listed apart in the source
MT1-MMP = MT1-MMP (Homo sapiens, UniProt P50281); conditions: cited from earlier work
[6] = sub-lethal PR8 influenza, 74 hours post infection
[7] = influenza-infected mice, versus control treated

## CCOC(=O)C1=C[C@@H](OC(CC)CC)[C@H](NC(C)=O)[C@@H](N)C1 [Tamiflu, Oseltamivir phosphate, reference compound]
[1]; mouse, in vivo
  tissue integrity, ECM morphology and collagen structure (AirSEM): same destructive lung tissue and ECM phenotypes were observed
[2]; versus vehicle-treated mice
  reduction of viral burden in whole-lung homogenates (qPCR): 10-100 fold
[3]; mouse, in vivo
  alveolar and bronchial structures / collateral damage in lung ECM (AirSEM): ineffective in preventing collateral damage in the lung ECM
  survival rates and clinical scores, preventive treatment (comparison in words): same survival rates and clinical scores as the group that received anti-MT1-MMP
  survival, therapeutic treatment: 20%
S. pneumoniae; mouse, in vivo
  bacteremia and dissemination of S. pneumoniae from lungs to systemic circulation and spleen: developed sepsis

B1: LEM 2/15: selective allosteric inhibitory antibody of MT1-MMP from LEM-2/15 hybridoma cells; Fab fragment given to mice at 3 mg/kg (antibody, V domains shown)
VL: LVIDVLMTQTPLSLPVGLGDQASISCRSSQSIVHSNGNTYLEWYLQKPGQSPKLLIYKVSNRFSGVPDRFSGSGSGTDFTLKISRVEAEDLGVYYCFQGSHAPYTFGGGTKLEIKR
VH: EVKLVESGGGLVKPGGSLKLSCAASGFIFSNYAMSWVRQTPEKRLEWVATISGGGRNIYSLDSVKGRFTFFRDNARNTLYLQMSSLRSEDTAMYFCSRENYGSSFTYWGQGTLVTVS
modifications: Fab fragment; LEM-2/15.8 antibody VH amino acid sequence; LEM-2/15.8 antibody VL amino acid sequence
[1]; [6]
  collagen type I fibers (two-photon second harmonic generation, 3D analysis): more abundant
  laminin degradation in infected lungs (immunostaining): protected laminin
  tissue integrity, ECM morphology and collagen structure (AirSEM): protected tissue integrity
[4]
  proteolysis by functional in situ zymography: significant attenuation of proteolysis
[5]; 74 hours post-infection, versus control antibody
  recruitment of macrophages and neutrophils to infected lungs (FACS): no detectable differences
[5]; [7]
  IL-1β level in BALF: strongly induced in influenza-infected mice regardless of MT1-MMP activity
  TNF-α level in BALF: strongly induced in influenza-infected mice regardless of MT1-MMP activity
[2]; 24 hours post infection
  effect on viral burden, early phases of infection: minimal effect
[2]; later stages of infection
  effect on viral burden, later stages: no effect was discernible
[3]; co-infection, treatment one day before infection (-1)
  survival rates and clinical scores, preventive treatment (comparison in words): equally effective in preventing co-infection induced mortality
[3]; co-infection, treatment one day post infection (+1)
  survival, therapeutic treatment: 70%
S. pneumoniae; co-infected mice, 2 days post bacterial infection, listed as MT1-MMP inhibitory antibody
  bacteremia and dissemination of S. pneumoniae from lungs to systemic circulation and spleen: reduced spread of bacteria
S. pneumoniae; co-infected mice, 2 days post bacterial infection, listed as anti-MT1-MMP inhibitor
  bacteremia and dissemination of S. pneumoniae from lungs to systemic circulation and spleen: did not develop systemic bacterial dissemination
MT1-MMP; inhibits collagenase activity of MT1-MMP expressed on the cell surface
  concentration at which the inhibitory antibody of MT1-MMP is effective: nano-molar concentrations
MT1-MMP; selectivity of inhibition
  interference with proMMP-2 activation and enzyme dimerization on the cell surface: without significantly interfering
